Data: paper PMC3386970

Key:
Assay in all cases: SPR; BIAcore 2000. Aaa, N-Aaa and C-Aaa amine-coupled at low density to a C1 chip (149, 96 and 72 pg/mm^2, nearly equimolar). Fg, Fn or Vn injected as analytes at 50 µl/min, 25°C. KD from the kinetics of the initial phases (binding biphasic at higher concentrations).
[1] = biological target: C-terminal CHAP domain of Aaa (6 x His-C-Aaa) (Staphylococcus aureus 4074)
[2] = biological target: N-terminal LysM domain of Aaa (6 x His-N-Aaa) (Staphylococcus aureus 4074)
[3] = biological target: autolysin/adhesin Aaa from Staphylococcus aureus (6 x His-Aaa) (Staphylococcus aureus) (UniProt Q2G0U9)

Chain of N-terminal LysM domain of Aaa (6 x His-N-Aaa) (Staphylococcus aureus 4074) (P0C1U7 26-214 limits assumed): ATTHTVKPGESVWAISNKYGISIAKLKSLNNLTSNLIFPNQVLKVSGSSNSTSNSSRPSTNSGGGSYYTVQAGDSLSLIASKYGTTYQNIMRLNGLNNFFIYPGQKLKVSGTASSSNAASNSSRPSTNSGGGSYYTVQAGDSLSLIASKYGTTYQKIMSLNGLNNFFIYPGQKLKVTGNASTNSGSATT
Chain of C-terminal CHAP domain of Aaa (6 x His-C-Aaa) (Staphylococcus aureus 4074) (P0C1U7 215-334 limits assumed): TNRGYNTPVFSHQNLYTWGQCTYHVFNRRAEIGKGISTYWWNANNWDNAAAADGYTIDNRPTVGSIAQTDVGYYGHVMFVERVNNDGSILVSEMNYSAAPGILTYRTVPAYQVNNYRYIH

| Substance | Kd [1] | relative stoichiometry of binding (Aaa : N-Aaa : C-Aaa) [1] | Kd [2] | relative stoichiometry of binding (Aaa : N-Aaa : C-Aaa) [2] | Kd [3] | relative stoichiometry of binding (Aaa : N-Aaa : C-Aaa) [3] |
| --- | --- | --- | --- | --- | --- | --- |
| fibronectin (from UniProt P02751 32-2477) (natural protein) | 6.8 nM | 1 | 5.1 nM | 1 | 6 nM | 2 |
| fibrinogen (from UniProt P02671 36-866; P02675 45-491; P02679 27-453) (complex) | 0.74 nM | 1 | 0.41 nM | 2 | 0.76 nM | 4 |
| vitronectin (natural protein) | 20 nM | 1 | 18 nM | 1 | 18 nM | 2 |
